# Results from PMC12442453, “An asymmetric tetrabody is a potent and efficacious agonist of the erythropoietin receptor in vitro and in vivo” (Protein Science : A Publication of the Protein Society, 2025).
# Legend:
# [1] = target: human EPOR, endogenous on TF-1 cells (Homo sapiens (TF-1 cells), UniProt P19235); assay: cell-based or functional assay
# [2] = target: T1, human EPOR ectodomain (ECD) fused to a human Fc domain (EPOR-Fc) (human, UniProt P19235); assay: ELISA; EPOR-Fc (human or mouse) immobilised by results and legends, Db-Fc or VL–VH protein in solution (single point and serial dilutions), 1 h room temperature, PBST, anti-Fc-HRP; apparent affinities; the methods name His-EPOR as the coated protein; conditions: both partners purified
# T1 construct: erythropoietin receptor (EPOR), human, ectodomain; Results and legends name EPOR-Fc as the immobilised protein of the ELISA and BLI experiments; the methods describe His-EPOR instead; also called human EPOR-Fc
# His-tagged ECD of EPHB4 = target: T2, His-tagged ECD of EPHB4 (Homo sapiens (assumed), UniProt P54760); assay: ELISA; His-tagged ECDs of EPOR, CD131 or EPHB4 tested against Db-Fc protein; conditions: both partners purified
# T2 construct: receptor tyrosine kinase EPHB4, ectodomain
# His-tagged ECD of CD131 = target: T3, His-tagged ECD of CD131 (Homo sapiens (assumed), UniProt P32927); assay: as above; conditions: both partners purified
# T3 construct: β-common cytokine receptor (β-CR, CD131), ectodomain; also called β-common cytokine receptor; β-CR
# [3] = target: T1, human EPOR ectodomain (ECD) fused to a …; assay: BLI; results and legends: EPOR-Fc immobilised, Db-Fc in solution, 600 s association, 600 s dissociation, global 1:1 fit; methods: Abs captured on anti-human Fc sensors, His-EPOR in solution in 3-fold dilutions from 100 nM, 25°C, PBS 0.05% Tween 20; conditions: both partners purified
# T1 sequence (P19235 25-250): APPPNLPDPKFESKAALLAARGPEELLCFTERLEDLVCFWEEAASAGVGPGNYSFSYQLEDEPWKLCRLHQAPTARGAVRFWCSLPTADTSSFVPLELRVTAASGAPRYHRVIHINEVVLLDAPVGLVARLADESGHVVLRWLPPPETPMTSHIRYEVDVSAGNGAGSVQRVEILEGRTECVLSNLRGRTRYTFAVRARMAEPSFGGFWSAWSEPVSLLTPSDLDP
# T3 sequence (P32927 17-443): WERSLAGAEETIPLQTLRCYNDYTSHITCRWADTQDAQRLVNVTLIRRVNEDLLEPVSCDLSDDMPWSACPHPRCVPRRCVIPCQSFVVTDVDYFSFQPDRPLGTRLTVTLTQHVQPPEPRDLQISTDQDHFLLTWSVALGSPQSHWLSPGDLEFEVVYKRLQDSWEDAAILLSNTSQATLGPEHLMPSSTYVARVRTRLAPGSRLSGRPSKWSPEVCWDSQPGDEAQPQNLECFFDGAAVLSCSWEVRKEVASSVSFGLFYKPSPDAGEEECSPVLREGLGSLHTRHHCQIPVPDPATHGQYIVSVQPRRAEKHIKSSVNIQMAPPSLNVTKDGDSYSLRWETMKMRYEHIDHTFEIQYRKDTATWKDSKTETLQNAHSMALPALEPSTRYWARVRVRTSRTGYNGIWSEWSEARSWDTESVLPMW
# human EPOR, endogenous on TF-1 cells, sequence (P19235 25-508): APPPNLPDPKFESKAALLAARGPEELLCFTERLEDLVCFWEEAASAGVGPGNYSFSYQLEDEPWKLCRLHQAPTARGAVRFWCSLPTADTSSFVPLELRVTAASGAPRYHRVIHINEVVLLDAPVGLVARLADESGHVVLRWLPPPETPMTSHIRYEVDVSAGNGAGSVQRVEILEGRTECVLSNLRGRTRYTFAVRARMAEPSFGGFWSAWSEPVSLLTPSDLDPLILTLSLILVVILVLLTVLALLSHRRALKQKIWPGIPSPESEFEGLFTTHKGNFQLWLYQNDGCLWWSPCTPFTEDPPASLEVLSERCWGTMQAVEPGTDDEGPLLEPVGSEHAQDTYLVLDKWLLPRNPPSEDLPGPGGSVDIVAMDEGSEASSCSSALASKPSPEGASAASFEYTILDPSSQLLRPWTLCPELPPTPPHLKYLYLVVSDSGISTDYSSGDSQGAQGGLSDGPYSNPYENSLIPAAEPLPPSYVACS
# T2 sequence (P54760 16-539): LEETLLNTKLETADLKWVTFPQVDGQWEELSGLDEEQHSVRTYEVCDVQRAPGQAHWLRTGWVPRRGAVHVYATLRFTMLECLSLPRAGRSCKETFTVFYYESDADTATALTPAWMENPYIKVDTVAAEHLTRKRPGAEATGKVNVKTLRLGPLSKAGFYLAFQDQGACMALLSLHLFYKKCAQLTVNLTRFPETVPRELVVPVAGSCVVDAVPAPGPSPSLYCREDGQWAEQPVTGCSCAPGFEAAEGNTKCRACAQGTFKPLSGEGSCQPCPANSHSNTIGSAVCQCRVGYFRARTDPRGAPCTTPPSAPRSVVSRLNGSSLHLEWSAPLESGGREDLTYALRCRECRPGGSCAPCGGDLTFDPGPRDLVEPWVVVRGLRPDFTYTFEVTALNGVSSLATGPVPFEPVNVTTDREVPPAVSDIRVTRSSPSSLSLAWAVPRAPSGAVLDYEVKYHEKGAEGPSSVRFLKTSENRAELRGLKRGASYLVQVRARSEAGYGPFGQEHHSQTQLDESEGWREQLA
"UT-7/Epo cell proliferation (ATP/luciferase luminescence), EC50 [1] [nM]",EC50 [2] [nM],binding result (His-tagged ECD of EPHB4),binding result (His-tagged ECD of CD131),Kd [3] [nM],binding result [3],Binder
0.2,1.5,no binding,no binding,1.5,,"Db-Fc 1 (Fc fusion, VL domain of clone 1 (human framework of the Db library); Gly5 linker between VL and VH; VH domain of clone 1; IMGT numbering, heavy chain; Diabody-Fc fusion (VL-Gly5-VH-Fc); Protein-A purified preparation: mainly the dimeric Db-Fc, with a minor earlier-eluting SEC peak (putative Tb-Fc2); also called Db 1; VL–VH 1; source: Expi293, transient expression, purified (rProtein-A); not shown: Fc, …) VH: EVQLVESGGGLVQPGGSLRLSCAASGFNLYSYYIHWVRQAPGKGLEWVASISPYYSYTYYADSVKGRFTISADTSKNTAYLQMNSLRAEDTAVYYCARHGYGAMDYWGQGTLVTVSS VL: DIQMTQSPSSLSASVGDRVTITCRASQSVSSAVAWYQQKPGKAPKLLIYSASSLYSGVPSRFSGSRSGTDFTLTISSLQPEDFATYYCQQSSYSLITFGQGTKVEIK"
,,,,5,,"Db-Fc 1.1 (Fc fusion, VL domain of variant 1.1; Gly5 linker between VL and VH; VH domain of variant 1.1; Diabody-Fc fusion; >99% eluted as the Db-Fc form by SEC; Called Db-Fcmix 1.1 where not fractionated by preparative SEC; also called variant 1.1; Db-Fcmix 1.1; source: Expi293, transient expression, purified (rProtein-A); not shown: Fc, C-terminal, kept) VH: EVQLVESGGGLVQPGGSLRLSCAASGFNLRSYYMHWVRQAPGKGLEWVASISPYYSYTYYADSVKGRFTISADTSKNTAYLQMNSLRAEDTAVYYCARHGYGAMDYWGQGTLVTVSS VL: DIQMTQSPSSLSASVGDRVTITCRASQSVSSAVAWYQQKPGKAPKLLIYSASSLYSGVPSRFSGSRSGTDFTLTISSLQPEDFATYYCQQSSYSLITFGQGTKVEIK"
,,,,,binds,"Db-Fc 1.3 (Fc fusion, VL domain of variant 1.3; derived from the library on Db 1.1 (PDB 9NWU); Gly5 linker between VL and VH; VH domain of variant 1.3; the fraction is named in the readout of each functional row; also called variant 1.3; VL–VH 1.3; source: Expi293, transient expression, purified (rProtein-A); fractions by preparative SEC; not shown: Fc, C-terminal, kept) VH: EVQLVESGGGLVQPGGSLRLSCAASGFNLRSYYMHWVRQAPGKGLEWVASISPHYGYTYYADSVKGRFTISADTSKNTAYLQMNSLRAEDTAVYYCARHGYSAMDYWGQGTLVTVSS VL: DIQMTQSPSSLSASVGDRVTITCRASQSVSSAVAWYQQKPGKAPKLLIYSASSLYSGVPSRFSGSRSGTDFTLTISSLQPEDFATYYCQQSSDSLFTFGQGTKVEIK"
,,,,1.8,,"Db-Fc 1.2 (Fc fusion, VL domain of variant 1.2; Gly5 linker between VL and VH; VH domain of variant 1.2; Diabody-Fc fusion; nearly homogeneous Db-Fc peak by SEC; In vivo used both as unfractionated mixture and as the Db-Fc fraction from preparative SEC; also called variant 1.2; Db-Fcmix 1.2; source: Expi293, transient expression, purified (rProtein-A); not shown: Fc, C-terminal, kept) VH: EVQLVESGGGLVQPGGSLRLSCAASGFNLRSYYMHWVRQAPGKGLEWVASIAPYHGYTYYADSVKGRFTISADTSKNTAYLQMNSLRAEDTAVYYCARHGYGALDYWGQGTLVTVSS VL: DIQMTQSPSSLSASVGDRVTITCRASQSVSSAVAWYQQKPGKAPKLLIYSASSLYSGVPSRFSGSRSGTDFTLTISSLQPEDFATYYCQQSSNFLITFGQGTKVEIK"
0.4,0.6,no binding,no binding,5.1,,"Db-Fc 2 (Fc fusion, VL domain of clone 2 (human framework of the Db library); Gly5 linker between VL and VH; VH domain of clone 2; Diabody-Fc fusion (VL-Gly5-VH-Fc); Protein-A purified preparation: mainly the dimeric Db-Fc, with a minor earlier-eluting SEC peak; also called Db 2; VL–VH 2; source: Expi293, transient expression, purified (rProtein-A); not shown: Fc, C-terminal, kept) VH: EVQLVESGGGLVQPGGSLRLSCAASGFNLSSYYIHWVRQAPGKGLEWVASISPYYSYTYYADSVKGRFTISADTSKNTAYLQMNSLRAEDTAVYYCARHSYAALDYWGQGTLVTVSS VL: DIQMTQSPSSLSASVGDRVTITCRASQSVSSAVAWYQQKPGKAPKLLIYSASSLYSGVPSRFSGSRSGTDFTLTISSLQPEDFATYYCQQAYWPITFGQGTKVEIK"
